B1: CL-82558 (antibody, human IgG4 S228P, kappa, V domains shown)
VH: QVQLQESGPGLVKPSQTLSLTCTVSGGSISSGGYYWSWIRQVPGKGLEWIGYISYSGNTFYSPSLKSRVTISVDTSENKFSLRLTSVTAADTAVYFCARDRRIPMLRGVKGYYYGLDVWGQGTTVTVSS
VL: DIVMTQSPLSLPVIPGEPASISCRSSQSLLHRNGYKYLDWYLQKPGQSPQLLIYLGSNRASGVPARFSGSGSGTDFTLKISRVEAEDVGVYYCMQALQTPWTFGQGTKVEIKR
notes: Tested in human IgG4-PE format; also called CL-82558 (IgG4-PE format)
B2: CL-82658 (antibody, human IgG4 S228P, kappa, V domains shown)
VH: QVQLVESGGGVVQPGRSLRLSCAASGFSFSSYGMHWVRQAPGKGLEWVAVISYDGSNKYYADSVKGRFTISRDNSKNTLYLQMNSLRGEDTAVYYCSKGSLTPRRGYYYSYGMDVWGQGTTVTVSS
VL: DIQMTQSPSSLSASVGDRVTITCRASQGIRNDLSWYQQKPGKAPKRLIYAASSLQSGVPSRFSGSGSGTEFTLTISSLQPEDFATYYCLQHNGYPFTFGPGTKVDIKR
notes: Tested in human IgG4-PE format; also called CL-82658 (IgG4-PE format)
B3: CL-148729 (antibody, human IgG4 S228P, lambda, V domains shown)
VH: AVQLVESGGGLVQPGGSLKLSCAASGFTFSGSTMHWVRQASGRGLEWVGRIRSKADSYATAYSASVKGRFTISRDDSKKMAYLQMNSLKTEDMAVYYCTRSGDYWGQGTLVTVSS
VL: QSVLTQPPSVSAAPGQKVTISCSGSSSNIGKNYVAWYQQLPGTAPKLLIYDTNKRPSGIPDRFSGSKSGTSATLDITGLQTGDEADYYCGTWDISLSVGWLFGGGTKVTVLG
notes: Tested in human IgG4-PE format
B4: Anti-CXCR7 mAb #11G8 (R&D Systems) (antibody, V domains shown)
VH: EVKLVESGGDLVQPGGSLKLSCATSGFTFSDYYMFWVRQTPEKRLEWVAYITNGGDRSYYSDTVTGRFIISRDNAKNTLYLQMSRLKSEDTAMYYCARQGNWAAWFVYWGQGTLVTVSA
VL: DVLMTQTPLSLPVSLGDQASISCRSSHYIVHSDGNTYLEWYLQKPGQSPKLLIYKVSNRFSGVPDRFSGSGSGTDFTLKISRVEAEDLGIYYCFQGSHVPLTFGAGTKLELKR

Columns and labels:
cynomolgus CXCR4 [1] = target: T1, cynomolgus CXCR4 (cynomolgus monkey, UniProt Q28474 1-352); experiment: flow cytometry on CHO-S cells expressing cynomolgus CXCR4
T1 construct: also called cyno CXCR4; cynomolgus monkey CXCR4
T1 sequence (Q28474 whole entry): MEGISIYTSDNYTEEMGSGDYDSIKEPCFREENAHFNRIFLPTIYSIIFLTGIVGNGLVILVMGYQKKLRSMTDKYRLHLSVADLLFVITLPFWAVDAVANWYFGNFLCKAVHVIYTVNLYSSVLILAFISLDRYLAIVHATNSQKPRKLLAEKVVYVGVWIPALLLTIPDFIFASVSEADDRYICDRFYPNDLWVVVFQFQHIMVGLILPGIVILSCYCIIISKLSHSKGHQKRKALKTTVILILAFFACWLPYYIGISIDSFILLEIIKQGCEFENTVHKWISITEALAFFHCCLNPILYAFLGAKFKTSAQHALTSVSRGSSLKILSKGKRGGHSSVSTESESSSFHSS
Procedure: (§1) Cynomolgus monkey CXCR4 expressing CHO-S cells were plated at 100 uL/well of cells at 1 million of cells/mL (0.1 million of cells/well) into a 96 well V-bottom plate (Greiner). Plates were centrifuged at 300×g for 3 min at 4° C. and supernatant discarded. […] Primary antibody dilutions were added to cells (50 μL/well) and cell pellets resuspended by pipetting. Plates was incubated for 1 h at 4° C. 100 μL/well of PBS, was added and plates centrifuged at 300×g for 3 min at 4° C. and supernatant discarded. This step was repeated twice. […] Cells were resuspended by pipetting. Plates were incubated for 1 h at 4° C. 100 μL/well PBS, was added and plates centrifuged at 300×g for 3 min at 4° C. and supernatant discarded. This step was repeated twice. Finally, cells were resuspended in 100 μL/well of PBS and analysed on CytoFLEX (Beckman Coulter).
(§2) Binding of antibodies to cynomolgus CXCR4 expressed on CHO-S cells was analysed by gating the main cell population using forward and side scatter (Flow Jo, Flow Jo LLC) to allow for doublet discrimination. […] EC₅₀ values were calculated by transforming the data and fitting a 4-parameter logistic regression curve to each antibody titration.

[2] = target: T2, human CXCR4 (cell-expressed) (human, UniProt P61073 1-352); experiment: cell-based or functional assay
T2 sequence (P61073 whole entry): as the sequence (Q28474 whole entry) above, with I24M, H35N, R38K, K146R, S176N counted along it

CXCR4 StaR nanodiscs [3] = target: T3, CXCR4 StaR nanodiscs; experiment: SPR (Biacore T200), IgG4-PE antibody captured by anti-IgG on CM5, CXCR4 StaR nanodiscs at 250 nM as analyte, 25 C, 1:1 model; N = 2
T3 construct: Purified receptor in lipid-protein nanodiscs; also called StaR CXCR4; thermostabilised CXCR4
Procedure: (§3) Anti-IgG antibodies were immobilised on chip CM5 (GE Healthcare) by amine coupling. […] A channel with no anti-CXCR4 antibodies captured was used as a reference. […] The blank-subtracted sensorgrams were fitted to the 1:1 interaction model using the Biacore T200 evaluation software. The assay was run at 25° C. using 0.01 M HEPES pH 7.4, 0.15 M NaCl as running buffer.

human CXCR7 [4] = target: T4, human CXCR7 (human, UniProt P25106 1-362); experiment: flow cytometry on CHO-S cells expressing human CXCR7, Alexa Fluor 647 secondary antibody, GeoMean (647 nm)
T4 construct: Expressed on CHO-S cells
T4 sequence (P25106 whole entry): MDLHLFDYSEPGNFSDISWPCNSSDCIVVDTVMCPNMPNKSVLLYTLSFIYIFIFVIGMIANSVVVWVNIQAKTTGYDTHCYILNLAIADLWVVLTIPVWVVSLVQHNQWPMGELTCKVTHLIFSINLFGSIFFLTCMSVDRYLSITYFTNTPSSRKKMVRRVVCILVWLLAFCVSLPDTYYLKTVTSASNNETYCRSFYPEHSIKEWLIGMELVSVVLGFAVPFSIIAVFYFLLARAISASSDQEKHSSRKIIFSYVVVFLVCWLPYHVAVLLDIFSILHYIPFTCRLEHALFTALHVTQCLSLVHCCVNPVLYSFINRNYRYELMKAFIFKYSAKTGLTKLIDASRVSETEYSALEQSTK
Procedure: CXCR7 expressing CHO-S cells were plated at 100 μL/well of cells at 1 million of cells/mL (0.1 million of cells/well) into a 96 well V-bottom plate (Greiner). Plates were centrifuged at 300×g for 3 min at 4° C. and supernatant discarded. […] Primary antibody dilutions were added to cells (100 μL/well) and cell pellets resuspended by pipetting. Plate was incubated for 1 h at 4° C. 100 μL/well of PBS, was added and plates centrifuged at 300×g for 3 min at 4° C. and supernatant discarded. This step was repeated twice. […] Cells were resuspended by pipetting. Plate was incubated for 1 h at 4° C. 100 μL/well of PBS, was added and plates centrifuged at 300×g for 3 min at 4° C. and supernatant discarded. This step was repeated twice. Finally, cells were resuspended in 100 μL/well of PBS and analysed on CytoFLEX (Beckman Coulter).
Binding of antibodies to CXCR7 expressed on CHO-S cells was analysed by gating the main cell population using forward and side scatter (Flow Jo, Flow Jo LLC) to allow for doublet discrimination.

CXCR4 StaR nanodiscs [5] = target: T3, CXCR4 StaR nanodiscs; experiment: SPR (Biacore T200), IgG4-PE antibody captured by anti-IgG on CM5, CXCR4 StaR nanodiscs at 250 nM as analyte, 25 C, 1:1 model; N = 1
Procedure: as §3

[6] = target: T2, human CXCR4 (cell-expressed); experiment: cell-based or functional assay; remark: listed apart in the source
[7] = target: T2, human CXCR4 (cell-expressed); experiment: cell-based or functional assay; remark: listed apart in the source
[8] = target: T2, human CXCR4 (cell-expressed); experiment: cell-based or functional assay; remark: listed apart in the source
[9] = target: T2, human CXCR4 (cell-expressed); experiment: cell-based or functional assay; remark: listed apart in the source
cynomolgus CXCR4 [10] = target: T1, cynomolgus CXCR4; experiment: cell-based or functional assay
[11] = target: T2, human CXCR4 (cell-expressed); experiment: cell-based or functional assay; remark: listed apart in the source
[12] = target: T5, terbium-labelled SNAP-CXCR4 on HEK-293 cells (Cisbio C1TT1CXCR4) (human, UniProt P61072 1-352 (Pan troglodytes entry), terbium label on the SNAP tag); experiment: TR-FRET (Tag-lite) competition with AlexaFluor 647-CXCL12 on terbium-labelled SNAP-CXCR4 HEK-293 cells
T5 construct: Bought assay-ready cells; also called CXCR4 expressing cells; not shown: SNAP tag
T5 sequence (P61072 whole entry): as the sequence (Q28474 whole entry) above, with I24M, H35N, R38K, K146R, S176N counted along it

[13] = target: T2, human CXCR4 (cell-expressed); experiment: cell-based or functional assay; remark: listed apart in the source
cynomolgus CXCR4 [14] = target: T1, cynomolgus CXCR4; experiment: flow cytometry on CHO-S cells expressing cynomolgus CXCR4, anti-human Alexa Fluor 647 secondary antibody, GeoMean (647 nm)
Procedure: as §1, §2

human CXCR7 [15] = target: T4, human CXCR7; experiment: flow cytometry on CHO-S cells expressing human CXCR7, anti-mouse Alexa Fluor 647 secondary antibody, GeoMean (647 nm)

Binder	EC50 (cynomolgus CXCR4 [1])	% effect (remaining % of CXCL12 response), DMR assay, human T-cells [2]	IC50, label-free DMR assay, isolated human T-cells, EC80 CXCL12 [2]	binding result (human CXCR7 [4])	Kd (CXCR4 StaR nanodiscs [5])	koff (CXCR4 StaR nanodiscs [5])	kon (CXCR4 StaR nanodiscs [5])	% Max Inhibition, cAMP HTRF assay, CXCR4 BacMam HEK-293 cells [6]	IC50, cAMP HTRF assay, CXCR4 BacMam HEK-293 cells, 5.5 nM CXCL12 [6]	% of max migration at 120 nM Ab, primary naïve T-cell trans-well migration [7]	Max Signal (Total Overlap Object Area), internalisation on Ramos cells, live-cell imaging [8]	% Max Inhibition, beta-arrestin reporter assay, Tango CXCR4-bla U2OS cells [9]	IC50, beta-arrestin reporter assay, Tango CXCR4-bla U2OS cells, 30 nM CXCL12 [9]	% Maximum Inhibition, cAMP HTRF assay, cyno CXCR4 BacMam HEK-293 cells (cynomolgus CXCR4 [10])	IC50, cAMP HTRF assay, cyno CXCR4 BacMam HEK-293 cells (cynomolgus CXCR4 [10])	IC50 n = 1, Jurkat chemotaxis towards 30 nM CXCL12 (IncuCyte) [11]	IC50 n = 2, Jurkat chemotaxis towards 30 nM CXCL12 (IncuCyte) [11]	IC50 n = 3, Jurkat chemotaxis towards 30 nM CXCL12 (IncuCyte) [11]	Mean IC50, Jurkat chemotaxis towards 30 nM CXCL12 (IncuCyte) [11]	% Max Inhibition [12]	other results
B1	1.1 nM	4.3%	1.72 nM	no binding (tested: log(M) about -6.9 (about 1.2e-7 M))	3.9 nM	0.00047 s⁻¹	120000 M⁻¹ s⁻¹	94%	29 nM	6.34%	23900 µm^2 per image	99.5%	0.07 nM	83%	1.3 nM	0.72 nM	0.94 nM	0.71 nM	0.79 nM	101%	Kd (CXCR4 StaR nanodiscs [3]): 1.7 nM; koff (CXCR4 StaR nanodiscs [3]): 0.00013 s⁻¹; kon (CXCR4 StaR nanodiscs [3]): 77000 M⁻¹ s⁻¹; IC50 [12]: 0.57 nM; IC50 of antibody in presence of 30 nM CXCL12, human T-cell transwell chemotaxis [13]: 0.14 not printed (nM assumed)
B2	4.2 nM	-0.6%	1.54 nM	no binding (tested: log(M) about -6.9 (about 1.2e-7 M))	9.6 nM	0.0005 s⁻¹	52000 M⁻¹ s⁻¹	98%	23 nM	-2.08%	18900 µm^2 per image	100%	0.35 nM	80%	1 nM	0.22 nM	0.31 nM	0.21 nM	0.25 nM	100%	IC50, primary naïve T-cell trans-well migration [7]: 0.99 nM; IC50 [12]: 1.04 nM; IC50 of antibody in presence of 30 nM CXCL12, human T-cell transwell chemotaxis [13]: 0.18 not printed (nM assumed)
B3								114%	6 nM			99.6%	0.11 nM								binding result (cynomolgus CXCR4 [14]): no binding (tested: log(M) about -6.9 (about 1.2e-7 M))
B4																					EC50 (read off the curve) (human CXCR7 [15]): ~10 nM

Reference: patent publication US20240294651A1 (KYMAB, published 2024)
